Laboratory results from patent US20210324015A1.

Biological target: Pfs25 (Plasmodium falciparum) (UniProt P13829)
Assay: cell-based or functional assay

UniProt P13829, sequence (P13829 17-196): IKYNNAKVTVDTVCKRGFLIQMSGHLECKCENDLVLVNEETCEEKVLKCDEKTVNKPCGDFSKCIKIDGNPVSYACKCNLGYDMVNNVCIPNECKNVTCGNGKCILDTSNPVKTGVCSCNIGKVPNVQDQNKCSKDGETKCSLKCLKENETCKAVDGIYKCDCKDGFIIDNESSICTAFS

With anti-Pfs25 mAb 4B7 (antibody) the % inhibition estimate (standard membrane feeding assay, SMFA) was 93.8%.
